Seven molecules from US6685932 can be followed below.

The labels stand for the following.
B1: 26CMAR-IL4 (peptide)
peptide: RMKQLEKKVERLLKRNYRLEWEVIRCKKLVG
modifications: not checked
B2: 12CMAR-IL4 (peptide)
peptide: B1 peptide with L12C, C26L
modifications: not checked
B3: Model 2a (peptide)
peptide: B1 peptide with W21N, I24A, C26L
modifications: not checked
B4: Model 2c (peptide)
peptide: B1 peptide with I24A, C26L
modifications: not checked
B5: Model 2b (peptide)
peptide: B1 peptide with W21N, C26L
modifications: not checked
B6: MAR-IL4 (peptide)
peptide: B1 peptide with C26L
modifications: not checked
B7: 12CNMAR-IL4 (peptide)
peptide: RMKQLEKKVERCLKRLYRNEWEVIRLKKLVG
modifications: not checked

Changes are numbered by the printed parent chain.

In the first test the target is T1, extracellular domain of the IL-4Rα (IL-4 binding protein), P24394. The test can be described thus: biosensor (BIA2000), compared with MAR-IL4.
T1 sequence (P24394 26-232 limits assumed): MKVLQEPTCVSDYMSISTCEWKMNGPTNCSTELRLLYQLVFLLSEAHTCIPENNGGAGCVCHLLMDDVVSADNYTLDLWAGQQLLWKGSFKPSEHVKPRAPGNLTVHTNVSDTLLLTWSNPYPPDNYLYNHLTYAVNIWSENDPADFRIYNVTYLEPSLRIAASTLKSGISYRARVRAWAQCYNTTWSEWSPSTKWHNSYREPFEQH
The molecule B1 returned a fold increase in binding affinity against MAR-IL4 of 5 fold.
B2: the fold increase in binding affinity against MAR-IL4 was 5 fold.

A further test concerns the target T1, extracellular domain of the IL-4Rα …. The test can be described thus: biosensor (BIA2000), IL4BP on a streptavidin matrix, room temperature.
Regarding B3, the Kd turned out to be 2000 µM.
The same measure, in the same setting: with B4 the figure was 100 µM.

The next test shares this target. The test is described as follows: biosensor (BIA2000), IL4BP biotinylated at Cys-206 on a streptavidin matrix, 25 C.
On to B3, for which the Kd was found to be 2160 µM.
In turn, B5 displayed a Kd of 193 µM.
Still for that read-out and setting: under B1 stands 5 to 10 µM; under B4, 106 µM.
The same measure, in the same setting: with B2 the figure was 5 µM; with B6, 26 µM; with B7, 5 µM.

The Kd is the free concentration of one partner at which half of the binding sites on the other are occupied at equilibrium, for simple one-to-one binding.
